# Assay results from US7618787B2, “Method of screening compound capable of accelerating or inhibiting apoptosis, apoptosis accelarator and apoptosis inhibitor” (Hisamitsu Pharmaceutical Co., Inc., priority 2004, dated 2009).
# T1: HA-p73α (Homo sapiens, UniProt O15350)
# T1 construct: expressed in transfected cells; host or cells: COS7
# T1 sequence (O15350 1-636): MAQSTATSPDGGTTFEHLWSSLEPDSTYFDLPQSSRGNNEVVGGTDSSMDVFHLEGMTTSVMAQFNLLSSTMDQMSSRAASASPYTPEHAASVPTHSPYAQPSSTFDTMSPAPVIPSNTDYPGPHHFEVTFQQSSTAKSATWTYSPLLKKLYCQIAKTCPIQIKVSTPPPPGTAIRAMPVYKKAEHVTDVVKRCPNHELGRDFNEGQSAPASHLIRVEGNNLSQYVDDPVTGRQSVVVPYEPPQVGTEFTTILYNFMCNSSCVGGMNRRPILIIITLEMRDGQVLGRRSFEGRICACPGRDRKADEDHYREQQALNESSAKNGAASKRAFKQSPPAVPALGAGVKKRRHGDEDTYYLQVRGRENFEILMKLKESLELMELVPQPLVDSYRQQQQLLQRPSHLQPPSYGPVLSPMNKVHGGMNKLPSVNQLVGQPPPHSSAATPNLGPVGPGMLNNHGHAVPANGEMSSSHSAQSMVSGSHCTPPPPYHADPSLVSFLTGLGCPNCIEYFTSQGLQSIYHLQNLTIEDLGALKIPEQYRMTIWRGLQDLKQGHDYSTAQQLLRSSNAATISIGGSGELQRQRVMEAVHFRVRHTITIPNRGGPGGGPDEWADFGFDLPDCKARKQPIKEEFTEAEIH
# B1: IKK-α: IKK-α protein, amino acid sequence SEQ ID NO: 24, expressed from plasmid; apoptosis enhancer (protein, listed as Homo sapiens)
# chain: MERPPGLRPGAGGPWEMRERLGTGGFGNVCLYQHRELDLKIAIKSCRLELSTKNRERWCHEIQIMKKLNHANVVKACDVPEELNILIHDVPLLAMEYCSGGDLRKLLNKPENCCGLKESQILSLLSDIGSGIRYLHENKIIHRDLKPENIVLQDVGGKIIHKIIDLGYAKDVDQGSLCTSFVGTLQYLAPELFENKPYTATVDYWSFGTMVFECIAGYRPFLHHLQPFTWHEKIKKKDPKCIFACEEMSGEVRFSSHLPQPNSLCSLIVEPMENWLQLMLNWDPQQRGGPVDLTLKQPRCFVLMDHILNLKIVHILNMTSAKIISFLLPPDESLHSLQSRIERETGINTGSQELLSETGISLDPRKPASQCVLDGVRGCDSYMVYLFDKSKTVYEGPFASRSLSDCVNYIVQDSKIQLPIIQLRKVWAEAVHYVSGLKEDYSRLFQGQRAAMLSLLRYNANLTKMKNTLISASQQLKAKLEFFHKSIQLDLERYSEQMTYGISSEKMLKAWKEMEEKAIHYAEVGVIGYLEDQIMSLHAEIMELQKSPYGRRQGDLMESLEQRAIDLYKQLKHRPSDHSYSDSTEMVKIIVHTVQSQDRVLKELFGHLSKLLGCKQKIIDLLPKVEVALSNIKEADNTVMFMQGKRQKEIWHLLKIACTQSSARSLVGSSLEGAVTPQTSAWLPPTSAEHDHSLSCVVTPQDGETSAQMIEENLNCLGHLSTIIHEANEEQGNSMMNLDWSWLTE
# Columns and labels:
# [1] = system: H1299 cells; assay: Apoptosis assay (trypan blue / Red-Gal double staining), p73α-dependent; assay type: cell-based, human; conditions: H1299, coexpression with HA-p73α, 48 hours (FIG. 25-27)
# Procedure: To detect apoptosis via p73α and IKK overexpression, H1299 cells were seeded at a density of 1.5×10^4 cells/well onto a 6-well tissue culture dish. Next day, the cells were transiently transfected with 50 ng of β-galactosidase expression plasmid and 50 ng of HA-p73α expression plasmid in the presence or absence of varying amounts of IKK-α or IKK-β expression vectors (100, 200, or 400 ng). After 48 hours of the transfection, the cells were washed with ice-cold PBS and stained at room temperature for 10 minutes with 0.4% trypan blue (PBS solution). Then, the cells were washed twice with PBS, then fixed for 10 minutes in PBS containing 2.5% glutaraldehyde, 1 mM magnesium chloride, and 2 mM EGTA, and stained for 2 hours with Red-Gal (Research Organics) according to the method described in Bayon, Y. et al., Mol. Cell. Biol. 23: 1061-1074 (2003). Red-Gal was used as a marker for visualizing the transfected cells to evaluate the degree of apoptosis occurring in the transfectants. […] Results were indicated by an average of three independent transfections (each performed three times or more).
# Potential effect(s) of IKK-α on p73-dependent biological functions such as the regulation of apoptosis was examined. […] After 48 hours of the transfection, the cells were subjected to double staining with trypan blue (nonviable cells) and Red-Gal (transfected cells), and the number of purple cells was scored.
# [2] = biological target: T1, HA-p73α; assay: Ubiquitination assay in COS7 cells; assay type: cell-based; conditions: COS7, HA-p73α and HA-ubiquitin, MG-132 (FIG. 18, 19)
# Procedure: COS7 cells were transiently transfected with a constant amount of expression plasmids encoding HA-p73α and HA-Ub in the presence or absence of varying amounts of IKK-α expression plasmids. After […] from the transfection, the cells were exposed for 6 hours to a proteasome inhibitor MG-132 (final concentration: 20 μM), and lysates from the whole cells were first subjected to immunoprecipitation with an anti-p73 monoclonal antibody and then to immunoblot using an anti-HA monoclonal antibody (12CA5; Roche Molecular Biochemicals) to analyze ubiquitination levels.
# As described by Lee, C.-W. et al., Oncogene 18: 4171-4181 (1999), the steady-state level of p73 was regulated at least partially by the proteolytic process through the ubiquitin-proteasome pathway. Whether IKK-α inhibited the ubiquitination of p73 was investigated. COS7 cells were transfected with expression plasmids for HA-p73α and HA-ubiquitin together with or without varying amounts of IKK-α or FLAG-IKK-β expression plasmids. After 48 hours of the transfection, lysates from the whole cells were analyzed by immunoprecipitation and immunoblot and examined for the presence of p73α containing HA-ubiquitin.
# [3] = system: p53; assay: Luciferase reporter assay, p53-dependent transcriptional activation in H1299 cells; assay type: cell-based, human; conditions: H1299, coexpression with p53 (FIG. 22)
# Procedure: (§1) H1299 cells deficient in p53 were seeded at a density of 5×10^4 cells/well onto a 12-well tissue culture dish and transiently transfected with 100 ng of luciferase reporter construct (which carried a p53/p73-responsive element derived from a p21^WAF1, Bax, or MDM2 promoter), 10 ng of pRL-TK Renilla luciferase cDNA, and 25 ng of given expression plasmid (p53, HA-p73α, or HA-p73β) together with or without varying amounts of IKK-α or FLAG-IKK-β expression plasmids. The total amount of DNA per transfection was kept constant (510 ng) with a pcDNA3 empty plasmid. After 48 hours from the transfection, the cells were washed twice with ice-cold PBS and suspended in passive lysis buffer (Promega). Both firefly and Renilla luciferase activities were assayed by use of dual-luciferase reporter assay system (Promega) according to the instruction. […] intensity was measured with TD-20 luminometer (Turner Design). The firefly luciferase signal was normalized based on the Renilla luciferase signal. Results obtained from at least 3 transfections were indicated by mean value±standard deviation.
# To explore the functional implication of interaction between IKK-α and p73, the effect of IKK-α on p73-mediated transcriptional activation was first examined. […]
# [4] = system: p73; assay: Luciferase reporter assay, p73-dependent transcriptional activation in H1299 cells; assay type: cell-based, human
# Procedure: as §1
# To explore the functional implication of interaction between IKK-α and p73, the effect of IKK-α on p73-mediated transcriptional activation was first examined. H1299 cells deficient in p53 were transfected with a HA-p73α or HA-p73β expression plasmid and a luciferase reporter construct under the control of a p21^WAF1, Bax, or MDM2 promoter together with or without varying amounts of IKK-α expression plasmids. […] By contrast, increase in p53-responsive reporter gene activity was not induced by IKK-α (FIG. 22). To examine the specificity of p73-dependent transcriptional activation mediated by IKK-α, whether IKK-β enhanced p73 transcriptional activity to p53/p73-responsive promoters was confirmed.
molecule,measurement,setting,value
B1,number of cells undergoing p73α-dependent apoptosis,[1],increased the number of cells undergoing apoptosis
same,amount of ubiquitinated p73α,[2],decreased
same,p53-responsive reporter gene activity,[3],not induced
same,luciferase activity without p73,"[4]; H1299, IKK-α alone",almost no effect on luciferase activity
same,"p73-dependent transcriptional activation of p21WAF1, Bax, MDM2 promoter reporters","[4]; H1299, coexpression with HA-p73α or HA-p73β (FIG. 20, 21, 23)",Remarkable increase in p73-dependent transcriptional activation was dose-dependently observed
same,induction of endogenous p21WAF1 mediated by p73α,"[4]; H1299, immunoblot (FIG. 24)",remarkably up-regulated
